Reference: IntAct's records for PubMed 12732728

B1: RNA polymerase II subunit A C-terminal domain phosphatase (Homo sapiens), Q9Y5B0 (parent)
chain: MEVPAAGRVPAEGAPTAAVAEVRCPGPAPLRLLEWRVAAGAAVRIGSVLAVFEAAASAQSSGASQSRVASGGCVRPARPERRLRSERAGVVRELCAQPGQVVAPGAVLVRLEGCSHPVVMKGLCAECGQDLTQLQSKNGKQQVPLSTATVSMVHSVPELMVSSEQAEQLGREDQQRLHRNRKLVLMVDLDQTLIHTTEQHCQQMSNKGIFHFQLGRGEPMLHTRLRPHCKDFLEKIAKLYELHVFTFGSRLYAHTIAGFLDPEKKLFSHRILSRDECIDPFSKTGNLRNLFPCGDSMVCIIDDREDVWKFAPNLITVKKYVYFQGTGDMNAPPGSRESQTRKKVNHSRGTEVSEPSPPVRDPEGVTQAPGVEPSNGLEKPARELNGSEAATPRDSPRPGKPDERDIWPPAQAPTSSQELAGAPEPQGSCAQGGRVAPGQRPAQGATGTDLDFDLSSDSESSSESEGTKSSSSASDGESEGKRGRQKPKAAPEGAGALAQGSSLEPGRPAAPSLPGEAEPGAHAPDKEPELGGQEEGERDGLCGLGNGCADRKEAETESQNSELSGVTAGESLDQSMEEEEEEDTDEDDHLIYLEEILVRVHTDYYAKYDRYLNKEIEEAPDIRKIVPELKSKVLADVAIIFSGLHPTNFPIEKTREHYHATALGAKILTRLVLSPDAPDRATHLIAARAGTEKVLQAQECGHLHVVNPDWLWSCLERWDKVEEQLFPLRDDHTKAQRENSPAAFPDREGVPPTALFHPMPVLPKAQPGPEVRIYDSNTGKLIRTGARGPPAPSSSLPIRQEPSSFRAVPPPQPQMFGEELPDAQDGEQPGPSRRKRQPSMSETMPLYTLCKEDLESMDKEVDDILGEGSDDSDSEKRRPEEQEEEPQPRKPGTRRERTLGAPASSERSAAGGRGPRGHKRKLNEEDAASESSRESSNEDEGSSSEADEMAKALEAELNDLM

Variants of: B1
Settings: with t2fa_human GTF2F1, P35269
Chain of t2fa_human GTF2F1, P35269 (P35269 whole entry): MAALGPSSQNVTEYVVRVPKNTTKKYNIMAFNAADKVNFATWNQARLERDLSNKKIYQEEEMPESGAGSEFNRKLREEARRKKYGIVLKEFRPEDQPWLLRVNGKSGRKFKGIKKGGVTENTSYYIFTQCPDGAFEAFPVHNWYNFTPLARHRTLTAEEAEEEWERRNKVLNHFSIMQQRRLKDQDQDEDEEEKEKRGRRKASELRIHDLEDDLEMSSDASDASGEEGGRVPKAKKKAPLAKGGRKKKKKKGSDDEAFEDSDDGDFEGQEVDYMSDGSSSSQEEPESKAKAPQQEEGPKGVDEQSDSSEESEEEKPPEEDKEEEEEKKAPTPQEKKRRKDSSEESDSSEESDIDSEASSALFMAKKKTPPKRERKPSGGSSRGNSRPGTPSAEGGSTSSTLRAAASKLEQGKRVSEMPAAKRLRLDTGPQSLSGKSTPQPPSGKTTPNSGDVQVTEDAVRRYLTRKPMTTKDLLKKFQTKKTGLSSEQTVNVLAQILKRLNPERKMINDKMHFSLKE

Row | effect of a mutation on the interaction | Variant
1 | decreasing interaction | E956A;L957A
